In patent JP2011219380A (dated 2011):

T1: 成熟型ヒトVEGF-D(Hisタッグ付加、二量体、参考例3) (human, UniProt O43915 93-201)
T1 construct: also called human VEGF-D; not shown: His tag
T1 sequence: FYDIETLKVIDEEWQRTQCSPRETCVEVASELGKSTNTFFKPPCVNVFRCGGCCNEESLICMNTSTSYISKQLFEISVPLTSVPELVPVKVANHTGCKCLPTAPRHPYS

T2: 成熟型カニクイザルVEGF-D(Hisタッグ付加、二量体、参考例3) (cynomolgus monkey, UniProt O43915 93-201 (human entry))
T2 construct: also called cynomolgus VEGF-D; not shown: His tag
T2 chain: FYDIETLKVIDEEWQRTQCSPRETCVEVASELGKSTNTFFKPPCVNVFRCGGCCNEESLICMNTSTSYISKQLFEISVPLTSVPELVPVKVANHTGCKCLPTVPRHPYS

B1: VE29キメラ抗体 (antibody, human IgG1, V domains shown)
VH: DVQLQESGPGLVKPSQTVSLTCTVTGYSITNRYHWWNWIRQVSGNKLEWIGYISYSGDTVSNPSLKSRISITRDTSKNQLFLQLNSVTTEDIATYYCARDGGIYFDYWGQGTTLTVSS
VL: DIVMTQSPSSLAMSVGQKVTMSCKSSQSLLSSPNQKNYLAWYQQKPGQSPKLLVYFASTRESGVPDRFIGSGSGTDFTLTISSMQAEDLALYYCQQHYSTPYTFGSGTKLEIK
notes: also called キメラVE29; chimeric VE29
B2: VE199キメラ抗体 (antibody, human IgG1, V domains shown)
VH: EVQLQQSGPELVKPGASVKMSCKASGYSFTGYNMHWVKQSHGRSLEWIGYIDPYNGDTYYNQKFRDKATLTVDKSSSTAYMQLNSLTSEDSALYYCIRAGYYAMDYWGQGTSVTVSS
VL: DIVMTQTPLSLPVSLGDQASISCRSSQSLVHINGNTYLHWYLQKPGQSPKLLIYKVSNRFSGVPDRFSGSGSGTDFTLKISRVEAEDLGVYFCSQGTHVPRTFGGGTKLEIN
notes: also called キメラVE199; chimeric VE199
B3: ヒト化VE48抗体(H鎖:VE48HA、L鎖:VE48L6) (antibody, human IgG1, kappa, V domains shown)
VH: QVTLKESGPALVKPTQTLTLTCTFSGFSLSTYGMGVGWIRQPPGKALEWLANIWWNDDKYYNPVLRSRLTISKDTSKNQVVLTMTNMDPVDTATYYCVQVTNPFVFWGQGTLVTVSS
VL: DIVMTQTPLSLPVTPGEPASISCRSSQSLVHINGNTYLHWYLQKPGQSPQLLIYKVSNRFSGVPDRFSGSGSGTDFTLKISRVEAEDVGVYFCSQSTHVPWTFGGGTKVEIKR
notes: also called 48HA/48L6; HA/L6
B4: HA/L14(H鎖:VE48HA、L鎖:VE48L14) (antibody, human IgG1, kappa, V domains shown)
VH: QVTLKESGPALVKPTQTLTLTCTFSGFSLSTYGMGVGWIRQPPGKALEWLANIWWNDDKYYNPVLRSRLTISKDTSKNQVVLTMTNMDPVDTATYYCVQVTNPFVFWGQGTLVTVSS
VL: DIVMTQTPLSLPVTPGEPASISCRSSQSLVHIKGNTYLHWYLQKPGQSPQLLIYKVSNRFSGVPDRFSGSGSGTDFTLKISRVEAEDVGVYFCSQSTHVPWTFGGGTKVEIKR
notes: also called 48HA/48L14
B5: ヒト化抗体VE48抗体(48HK/48L6) (antibody, V domains shown)
VH: QVTLKESGPALVKPTQTLTLTCTFSGFSLSTYGMGVGWIRQPPGKALEWLANIWWNDDKYYNPVLRSRLTISKDTSKNQVVLTMTNMDPVDTATYYCVQVTNPFVFWGEGTLVTVSS
VL: DIVMTQTPLSLPVTPGEPASISCRSSQSLVHINGNTYLHWYLQKPGQSPQLLIYKVSNRFSGVPDRFSGSGSGTDFTLKISRVEAEDVGVYFCSQSTHVPWTFGGGTKVEIKR
notes: The light chain is VE48L6; also called VE48HK/VE48L6
B6: ヒト化抗体VE48抗体(48H16/48L6) (antibody, V domains shown)
VH: QVTLKESGPALVKPTQTLTLTCTFSGFSLSDYGMGVGWIRQPPGKALEWLANIWWNDDKYYNPVLRSRLTISKDTSKNQVVLTMTNMDPVDTATYYCVQVTNPFVFWGEGTLVTVSS
VL: DIVMTQTPLSLPVTPGEPASISCRSSQSLVHINGNTYLHWYLQKPGQSPQLLIYKVSNRFSGVPDRFSGSGSGTDFTLKISRVEAEDVGVYFCSQSTHVPWTFGGGTKVEIKR
notes: The light chain is VE48L6; also called VE48H16/VE48L6
B7: ヒト化抗体VE48抗体(48H17/48L6) (antibody, V domains shown)
VH: QVTLKESGPALVKPTQTLTLTCTFSGFSLSTYGMGVGWIRQPPGKALEWLANIWWEDDKYYNPVLRSRLTISKDTSKNQVVLTMTNMDPVDTATYYCVQVTNPFVFWGEGTLVTVSS
VL: DIVMTQTPLSLPVTPGEPASISCRSSQSLVHINGNTYLHWYLQKPGQSPQLLIYKVSNRFSGVPDRFSGSGSGTDFTLKISRVEAEDVGVYFCSQSTHVPWTFGGGTKVEIKR
notes: The light chain is VE48L6; also called VE48H17/VE48L6
B8: ヒト化抗体VE48抗体(48H18/48L6) (antibody, V domains shown)
VH: QVTLKESGPALVKPTQTLTLTCTFSGFSLSDYGMGVGWIRQPPGKALEWLANIWWEDDKYYNPVLRSRLTISKDTSKNQVVLTMTNMDPVDTATYYCVQVTNPFVFWGEGTLVTVSS
VL: DIVMTQTPLSLPVTPGEPASISCRSSQSLVHINGNTYLHWYLQKPGQSPQLLIYKVSNRFSGVPDRFSGSGSGTDFTLKISRVEAEDVGVYFCSQSTHVPWTFGGGTKVEIKR
notes: The light chain is VE48L6; also called VE48H18/VE48L6
B9: ヒト化抗体VE48抗体(48HH/48L6) (antibody, V domains shown)
VH: QVTLKESGPALVKPTQTLTLTCTFSGFSLSTYGMGVGWIRQPPGKALEWLANIWWEDDKYYNPVLRSRLTISKDTSKNQVVLTMTNMDPVDTATYYCVQVTNPFVFWGQGTLVTVSS
VL: DIVMTQTPLSLPVTPGEPASISCRSSQSLVHINGNTYLHWYLQKPGQSPQLLIYKVSNRFSGVPDRFSGSGSGTDFTLKISRVEAEDVGVYFCSQSTHVPWTFGGGTKVEIKR
notes: The light chain is VE48L6; also called VE48HH/VE48L6
B10: ヒト化抗体VE48抗体(48HI/48L6) (antibody, V domains shown)
VH: QVTLKESGPALVKPTQTLTLTCTFSGFSLSDYGMGVGWIRQPPGKALEWLANIWWNDDKYYNPVLRSRLTISKDTSKNQVVLTMTNMDPVDTATYYCVQVTNPFVFWGQGTLVTVSS
VL: DIVMTQTPLSLPVTPGEPASISCRSSQSLVHINGNTYLHWYLQKPGQSPQLLIYKVSNRFSGVPDRFSGSGSGTDFTLKISRVEAEDVGVYFCSQSTHVPWTFGGGTKVEIKR
notes: The light chain is VE48L6; also called VE48HI/VE48L6
B11: ヒト化抗体VE48抗体(48HJ/48L6) (antibody, V domains shown)
VH: QVTLKESGPALVKPTQTLTLTCTFSGFSLSTYGMGVGWIRQPPGKALEWLANIWWNDDKYYNPVLQDRLTISKDTSKNQVVLTMTNMDPVDTATYYCVQVTNPFVFWGQGTLVTVSS
VL: DIVMTQTPLSLPVTPGEPASISCRSSQSLVHINGNTYLHWYLQKPGQSPQLLIYKVSNRFSGVPDRFSGSGSGTDFTLKISRVEAEDVGVYFCSQSTHVPWTFGGGTKVEIKR
notes: The light chain is VE48L6; also called VE48HJ/VE48L6
B12: ヒト化VE199抗体(H鎖:VE199HA、L鎖:VE199LA) (antibody, human IgG1, kappa, V domains shown)
VH: QVQLVQSGPEVKKPGASVKVSCKASGYTFTGYNMHWVRQAPGQGLEWMGYIDPYNGDTYYNQKFQDRVTLTVDKSTSTAYMELSSLRSEDTAVYYCIRAGYYAMDYWGQGTLVTVSS
VL: DIVMTQTPLSLPVTPGEPASISCRSSQSLVHINGNTYLHWYLQKPGQSPQLLIYKVSNRFSGVPDRFSGSGSGTDFTLKISRVEAEDVGVYFCSQGTHVPRTFGGGTKVEIKR
notes: also called VE199HALA

target: T1, 成熟型ヒトVEGF-D(Hisタッグ付加、二量体、参考例3); test: competition cell ELISA, antibody titrated against 2.5 ug/mL human VEGF-D on human VEGFR-3 CHO cells

Binding result, binds:
B1
B2

target: T1, 成熟型ヒトVEGF-D(Hisタッグ付加、二量体、参考例3); test: competition cell ELISA, inhibition of human VEGF-D binding to human VEGFR-3 CHO cells, against chimeric VE48

Binding result, binds:
B3
B4
B5
B6
B7
B8
B9
B10
B11
B12

Target: T2, 成熟型カニクイザルVEGF-D(Hisタッグ付加、二量体、参考例3)
Test: competition cell ELISA, antibody titrated against 2.5 ug/mL cynomolgus VEGF-D on cynomolgus VEGFR-3 CHO cells

Binding result, binds:
B2
